Key:
[1] = biological target: AnOYE8 (Aspergillus niger CBS 513.88); experiment: native gel or EMSA; BN-PAGE, NativePAGE 3 to 12% Bis-Tris gel, 12.5 ug of sample from each gel filtration peak, 150 V for 2 h; BSA and HSA for comparison of the MWs
[2] = biological target: AnOYE8 (Aspergillus niger CBS 513.88); experiment: SEC; analytical gel filtration, Superdex 200 10/300 GL, 150 ug purified protein, Tris-HCl pH 8.0 50 mM, NaCl 150 mM, 1 mL/min; apparent molecular weight from a calibration curve
[3] = biological target: AnOYE8 (Aspergillus niger CBS 513.88); experiment: crystal structure; N-terminal His6-tagged AnOYE8, 15 mg/mL in Tris-HCl pH 8.0 50 mM; PEG 5000 MME 18% w/v, MES pH 6.5 0.1 M, ammonium sulphate 0.2 M, 293 K; space group C121, four molecules per asymmetric unit
[4] = biological target: BfOYE1 (Botryotinia fuckeliana B05.10); experiment: native gel or EMSA
[5] = biological target: BfOYE1 (Botryotinia fuckeliana B05.10); experiment: SEC; analytical gel filtration, Superdex 200 10/300 GL, 150 ug purified protein, Tris-HCl pH 8.0 50 mM, NaCl 150 mM, 1 mL/min; apparent molecular weight from a calibration curve
AnOYE8 = biological target: T1, AnOYE8 (Aspergillus niger, UniProt A2QBV3); experiment: X-ray crystal structure, […] Å; assay type: binding; settings: active site, non-covalently bound; pH 6.5 crystals
T1 construct: gene An02g01330
T1 sequence (A2QBV3 1-421): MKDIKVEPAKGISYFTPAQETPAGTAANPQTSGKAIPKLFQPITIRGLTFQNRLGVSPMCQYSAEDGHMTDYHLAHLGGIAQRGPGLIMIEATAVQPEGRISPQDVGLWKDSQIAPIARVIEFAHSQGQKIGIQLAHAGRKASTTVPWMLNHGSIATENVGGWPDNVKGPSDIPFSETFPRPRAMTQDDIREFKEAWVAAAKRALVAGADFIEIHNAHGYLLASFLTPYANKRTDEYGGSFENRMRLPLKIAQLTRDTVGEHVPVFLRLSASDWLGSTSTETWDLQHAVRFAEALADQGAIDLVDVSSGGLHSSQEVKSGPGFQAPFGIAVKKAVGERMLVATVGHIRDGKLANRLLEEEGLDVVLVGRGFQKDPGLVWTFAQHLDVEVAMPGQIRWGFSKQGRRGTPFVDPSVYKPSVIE

purified protein [6] = substrate: NC(=O)C1=CN([C@@H]2O[C@H](COP(=O)(O)OP(=O)(O)OC[C@H]3O[C@@H](n4cnc5c(N)ncnc54)[C@H](OP(=O)(O)O)[C@@H]3O)[C@@H](O)[C@H]2O)C=CC1; experiment: purified protein; assay type: biochemical, Aspergillus niger; settings: maleimide 1 mM, Tris-HCl 50 mM pH 8.0, 25 °C, enzyme 20 nM
purified protein [7] = substrate: O=C1C=CC(=O)N1; experiment: purified protein; assay type: biochemical, Aspergillus niger; settings: NADPH 100 µM, Tris-HCl 50 mM pH 8.0, 25 °C, enzyme 20 nM
purified protein [8] = substrate: C=CC(=O)CCCCC; experiment: purified protein; assay type: biochemical, Botrytis cinerea; settings: NADPH 100 µM, Tris-HCl 50 mM pH 8.0, 25 °C, enzyme 200 nM
purified protein [9] = substrate: CC1=CCCCC1=O; experiment: purified protein; assay type: biochemical, Botrytis cinerea; settings: NADPH 100 µM, Tris-HCl 50 mM pH 8.0, 25 °C, enzyme 200 nM
purified protein [10] = substrate: NC(=O)C1=CN([C@@H]2O[C@H](COP(=O)(O)OP(=O)(O)OC[C@H]3O[C@@H](n4cnc5c(N)ncnc54)[C@H](OP(=O)(O)O)[C@@H]3O)[C@@H](O)[C@H]2O)C=CC1; experiment: purified protein; assay type: biochemical, Botrytis cinerea; settings: maleimide 1 mM, Tris-HCl 50 mM pH 8.0, 25 °C, enzyme 20 nM
purified protein [11] = substrate: O=C1C=CC(=O)N1; experiment: purified protein; assay type: biochemical, Botrytis cinerea; settings: NADPH 100 µM, Tris-HCl 50 mM pH 8.0, 25 °C, enzyme 20 nM
purified protein [12] = substrate: O=C1C=CCC1; experiment: purified protein; assay type: biochemical, Botrytis cinerea; settings: NADPH 100 µM, Tris-HCl 50 mM pH 8.0, 25 °C, enzyme 200 nM
purified protein [13] = substrate: O=C1C=CCCC1; experiment: purified protein; assay type: biochemical, Botrytis cinerea; settings: NADPH 100 µM, Tris-HCl 50 mM pH 8.0, 25 °C, enzyme 200 nM

AnOYE8 (enzyme) was tested, and the stoichiometry N [1] was 2, the stoichiometry N [2] was 2 and the stoichiometry N [3] was 2.

BfOYE1 (enzyme) gave a stoichiometry N [4] of 2 and a stoichiometry N [5] of 2.

In the case of Cc1cc2nc3c(=O)[nH]c(=O)nc-3n(C[C@H](O)[C@H](O)[C@H](O)COP(=O)(O)O)c2cc1C [FMN], the “X-ray crystal structure, 2.8 Å” value (AnOYE8) is reported as “AnOYE8 accommodated a non-covalently bound FMN cofactor molecule”.

B1: AnOYE2 (Aspergillus niger CBS 513.88) (protein)
chain: MCSKLFQPLQIGKTNLEHRVVMAPLTRFRADSQHVPLPMATTYYEQRASVPGTLLIAEATLISPSAGGVPHAPGVWSEEQVNGWKKITEAVHKKGSFIFCQLIAAGRAADPAQLHAEGGFMLHAPSPIPIEPGMPVPKELDEIEVQEIINDFAMAAKNAIRAGFDGVEIHGANGYLVDQFLQDVSNKRNDKWGGSIPNRARFGLEVAKAVADAIGADRLGFRLSPWNTWQSMKMVDPVPQFTYFVERLQQLGLAYLHVIESRVINNVDCEKEGSIKFLLDVWGKSAPVIVAGGYRPENVENALEEEYKDYKVAVAFGRHFIANPDLPFRIRHDIHLNPYDRESFYTPLQENGYTDYPFSAEFIKSKTKC
Work on B1 yielded a Km (purified protein [6]) of 37 ± 10 µM, a kcat (purified protein [6]) of 8 ± 0.4 s⁻¹ and a kcat/Km (purified protein [6]) of 216000 M⁻¹ s⁻¹. It also gave a Km (purified protein [7]) of 10 ± 0 µM, a kcat (purified protein [7]) of 7.38 ± 0.66 s⁻¹ and a kcat/Km (purified protein [7]) of 738000 M⁻¹ s⁻¹.

B2: BfOYE4 (Botrytis cinerea B05.10) (protein)
chain: MSTPTPHPQHGVPCGTSTPRPGLLNTPAPGVPFYTPLQSPPSGTALHLSPSTPKLFTPLKIRSLTLQNRIMLSPMCQYSASNGHFTPWHMAHLGGIISRGPGLSMVEATSVLPEGRITPEDSGLWLDSQGDKLKEVVQFAHSQGQLIGIQLSHAGRKASMVAPWLDRSAVATEEAGGWPTKVKGPSAIPYDEHHYKPSAMTLEDIQEFKDAWAASLKRALKAGFDVIEIHNAHGYLLHEFVSPVSNKRTDQYGGSFENRIRLTLEIVEITRKIIPESMPLFLRISATDWLDYEGFGEESWTVADSARLAGILADRGVDLMDVSSGANHPRQKITAGLGYQAPFAKEIKRVVGERMLVGTVGMIGSGRQAEGLLSGMGGERGVDEGEEEEGKGTELDLVIVARGFQKNPGLVWEWAEELGVRIMVAHQMRWGFRGKAGGH
notes: N-terminal His6 tag, E. coli BL21(DE3), 421 residues, dimer in crystal, several oligomeric species in solution; cloning reported elsewhere
For B2, the Km (purified protein [8]) was 2720 ± 500 µM, the kcat (purified protein [8]) was 22.6 ± 1.14 s⁻¹ and the kcat/Km (purified protein [8]) was 8300 M⁻¹ s⁻¹. For the same molecule, the Km (purified protein [9]) was 1830 ± 180 µM, the kcat (purified protein [9]) was 0.56 ± 0.013 s⁻¹ and the kcat/Km (purified protein [9]) was 300 M⁻¹ s⁻¹. It also gave a Km (purified protein [10]) of 130 ± 20 µM, a kcat (purified protein [10]) of 89.2 ± 3.37 s⁻¹ and a kcat/Km (purified protein [10]) of 686000 M⁻¹ s⁻¹. It also gave a Km (purified protein [11]) of 70 ± 10 µM, a kcat (purified protein [11]) of 36.3 ± 1.12 s⁻¹ and a kcat/Km (purified protein [11]) of 519000 M⁻¹ s⁻¹. For the same molecule, the Km (purified protein [12]) was 1070 ± 120 µM, the kcat (purified protein [12]) was 1.06 ± 0.03 s⁻¹ and the kcat/Km (purified protein [12]) was 1000 M⁻¹ s⁻¹. For the same molecule, the Km (purified protein [13]) was 650 ± 90 µM, the kcat (purified protein [13]) was 2.57 ± 0.07 s⁻¹ and the kcat/Km (purified protein [13]) was 3900 M⁻¹ s⁻¹.
